Experimental data from patent publication US20240424125A1 (Zymeworks, published 2024).
Residue numbers refer to the chain shown, from its start.

B1: v30389 (antibody, human IgG1, kappa)
heavy 1: EVQVLESGGGLVQPGGSLRLSCAVSGFSLSSYGVSWVRQAPGKGLEWIGAVNSGGSAYYADSVKGRSTISRDNSKNTVYLQMNSLRAEDTAVYYCARSGSGYPMDYLAIWGQGTLVTVSSASTKGPSVFPLAPSSKSTSGGTAALGCLVKDYFPEPVTVSWNSGALTSGVHTFPAVLQSSGLYSLSSVVTVPSSSLGTQTYICNVNHKPSNTKVDKKVEPKSCDKTHTCPPCPAPELLGGPSVFLFPPKPKDTLMISRTPEVTCVVVDVSHEDPEVKFNWYVDGVEVHNAKTKPREEQYNSTYRVVSVLTVLHQDWLNGKEYKCKVSNKALPAPIEKTISKAKGQPREPQVYVYPPSRDELTKNQVSLTCLVKGFYPSDIAVEWESNGQPENNYKTTPPVLDSDGSFALVSKLTVDKSRWQQGNVFSCSVMHEALHNHYTQKSLSLSPG
heavy 2: not shown
light: DYQMTQSPSSVSASVGDRVTITCRASQSIGDWLAWYQQKPGKAPKLLIYEASTLASGVPSRFSGSGSGTDFTLTISSVQPEDAATYYCQQGYGRSNVDNIFGGGTKVEVKRTVAAPSVFIFPPSDEQLKSGTASVVCLLNNFYPREAKVQWKVDNALQSGNSQESVTEQDSKDSTYSLSSTLTLSKADYEKHKVYACEVTHQGLSSPVTKSFNRGEC
notes: Humanized IgG1/kappa, HetFc; also called 3bH4L
B2: v30384-MC-GGFG-AM-DXd1 (antibody, human IgG1, kappa)
heavy 1: B1 heavy 1 with V4L
heavy 2: not shown
light: B1 light
modifications: drug-linker MC-GGFG-AM-DXd1 on the antibody at DAR 8; conjugated residues not stated
B3: v30384-MT-GGFG-AM-Compound 139 (antibody, human IgG1, kappa)
heavy 1: B1 heavy 1 with V4L
heavy 2: not shown
light: B1 light
modifications: drug-linker MT-GGFG-AM-Compound 139 on the antibody at DAR 8; conjugated residues not stated
B4: v30384-MC-GGFG-Compound 140 (antibody, human IgG1, kappa)
heavy 1: B1 heavy 1 with V4L
heavy 2: not shown
light: B1 light
modifications: drug-linker MC-GGFG-Compound 140 on the antibody at DAR 8; conjugated residues not stated
B5: v30384-MT-GGFG-Compound 141 (antibody, human IgG1, kappa)
heavy 1: B1 heavy 1 with V4L
heavy 2: not shown
light: B1 light
modifications: drug-linker MT-GGFG-Compound 141 on the antibody at DAR 8; conjugated residues not stated
B6: v30384-MC-GGFG-AM-Compound 141 (antibody, human IgG1, kappa)
heavy 1: B1 heavy 1 with V4L
heavy 2: not shown
light: B1 light
modifications: drug-linker MC-GGFG-AM-Compound 141 on the antibody at DAR 8; conjugated residues not stated
B7: v30384-MT-GGFG-Compound 140 (antibody, human IgG1, kappa)
heavy 1: B1 heavy 1 with V4L
heavy 2: not shown
light: B1 light
modifications: drug-linker MT-GGFG-Compound 140 on the antibody at DAR 8; conjugated residues not stated
B8: v30384-MT-GGFG-Compound 148 (antibody, human IgG1, kappa)
heavy 1: B1 heavy 1 with V4L
heavy 2: not shown
light: B1 light
modifications: drug-linker MT-GGFG-Compound 148 on the antibody at DAR 8; conjugated residues not stated
B9: v31423 (antibody, human IgG1, kappa, V domains shown)
VH: EVQLLESGGGLVQPGGSLRLSCAVSGFSLSSYGVSWVRQAPGKGLEWIGAVNSGGSAYYADSVKGRSTISRDTSKNTVYLQMNSLRAEDTAVYYCARSGSGYPMDYLAIWGQGTLVTVSS
VL: DYQMTQSPSSVSASVGDRVTITCRASQSIGDWLAWYQQKPGKAPKLLIYEASTLASGVPSRFSGSGSGTDFTLTISSVQPEDAATYYCQQGYGRSNVDNIFGGGTKVEVKR
notes: Humanized IgG1/kappa, HomoFc; also called 3dH4L
B10: v35358 (antibody, human IgG1, kappa, V domains shown)
VH: B9 VH with V63F, T73N, L107H, A108P
VL: B9 VL with G30W, D31Y, S95W, N96H, V97I, D98L
B11: v35350 (antibody, human IgG1, kappa, V domains shown)
VH: B9 VH with S31L, V63F, T73N, L107H, A108P
VL: B9 VL with G30W, D31Y, S95W, N96H, V97I, D98L
B12: v35354 (antibody, human IgG1, kappa, V domains shown)
VH: B9 VH with S31L, V63F, T73N
VL: B9 VL with G30W, D31Y, S95W, N96H, V97I, D98L
B13: v35342 (antibody, human IgG1, kappa, V domains shown)
VH: B9 VH with S31L, A50S, V51L, T73N
VL: B9 VL with G30W, D31Y, S95W, N96H, V97I, D98L
B14: v31424 (antibody, human IgG1, kappa)
heavy: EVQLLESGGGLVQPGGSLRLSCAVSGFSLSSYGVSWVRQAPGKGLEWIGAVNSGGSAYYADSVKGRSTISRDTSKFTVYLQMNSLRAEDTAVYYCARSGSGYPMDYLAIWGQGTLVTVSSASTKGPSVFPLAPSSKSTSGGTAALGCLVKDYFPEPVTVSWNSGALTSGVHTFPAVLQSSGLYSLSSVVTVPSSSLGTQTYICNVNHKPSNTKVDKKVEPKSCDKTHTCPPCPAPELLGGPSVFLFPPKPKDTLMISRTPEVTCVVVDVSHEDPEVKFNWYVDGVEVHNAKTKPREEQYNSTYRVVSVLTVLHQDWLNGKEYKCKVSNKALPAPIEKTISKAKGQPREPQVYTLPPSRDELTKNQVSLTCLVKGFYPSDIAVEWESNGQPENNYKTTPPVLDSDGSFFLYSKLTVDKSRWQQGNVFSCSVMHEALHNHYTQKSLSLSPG
light: B1 light
notes: Humanized IgG1/kappa, HomoFc; also called 3eH4L
B15: v31422 (antibody, human IgG1, kappa)
heavy: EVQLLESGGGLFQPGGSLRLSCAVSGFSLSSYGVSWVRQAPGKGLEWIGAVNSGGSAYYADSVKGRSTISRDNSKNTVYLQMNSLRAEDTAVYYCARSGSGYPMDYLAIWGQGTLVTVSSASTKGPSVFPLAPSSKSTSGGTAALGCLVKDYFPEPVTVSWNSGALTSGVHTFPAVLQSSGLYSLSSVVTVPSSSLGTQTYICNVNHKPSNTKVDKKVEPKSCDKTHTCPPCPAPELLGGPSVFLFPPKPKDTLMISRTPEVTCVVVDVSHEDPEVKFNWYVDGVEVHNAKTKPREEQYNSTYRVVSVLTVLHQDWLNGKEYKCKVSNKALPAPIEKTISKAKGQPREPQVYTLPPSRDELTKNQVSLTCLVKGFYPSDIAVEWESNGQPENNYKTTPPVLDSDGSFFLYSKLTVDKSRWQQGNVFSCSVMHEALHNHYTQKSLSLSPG
light: B1 light
notes: Humanized IgG1/kappa, HomoFc; also called 3cH4L
B16: v31425 (antibody, human IgG1, kappa)
heavy: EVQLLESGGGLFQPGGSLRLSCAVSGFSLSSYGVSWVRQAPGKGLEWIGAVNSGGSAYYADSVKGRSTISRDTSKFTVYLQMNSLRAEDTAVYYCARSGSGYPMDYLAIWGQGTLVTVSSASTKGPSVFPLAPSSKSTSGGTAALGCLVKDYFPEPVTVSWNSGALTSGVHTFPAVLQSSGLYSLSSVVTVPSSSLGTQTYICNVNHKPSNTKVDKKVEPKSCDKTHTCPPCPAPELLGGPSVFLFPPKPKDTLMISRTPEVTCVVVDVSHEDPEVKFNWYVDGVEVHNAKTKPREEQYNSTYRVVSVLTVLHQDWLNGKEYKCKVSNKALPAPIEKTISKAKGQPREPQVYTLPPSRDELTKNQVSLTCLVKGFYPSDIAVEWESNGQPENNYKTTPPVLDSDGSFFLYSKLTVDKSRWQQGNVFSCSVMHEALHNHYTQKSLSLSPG
light: B1 light
notes: Humanized IgG1/kappa, HomoFc; also called 3fH4L
B17: v35347 (antibody, human IgG1, kappa, V domains shown)
VH: B9 VH with S31L, V63F, T73N, L107H, A108P
VL: B9 VL
B18: v36167 (antibody, human IgG1, kappa, V domains shown)
VH: B9 VH with V63F, T73N
VL: B9 VL with G30W, D31Y, S95W, N96H, V97I, D98L
B19: v36168 (antibody, human IgG1, kappa, V domains shown)
VH: B9 VH with S31L, A50S, T73N
VL: B9 VL with G30W, D31Y, S95W, N96H, V97I, D98L

What was measured:
[1] = target: T1, recombinant His-tagged human FRα (ACROBiosystems) (human, UniProt P15328 25-233); experiment: BLI (Octet RED96): antibody on anti-human IgG Fc capture biosensor, His-tagged hFRα as analyte, 1:1 global fit, mean of n=2
T1 construct: also called hFRα; hFRα antigen; not shown: His tag
Method: (§1) The assay buffer used was KB buffer (kinetics buffer, composed of PBS pH 7.4, 0.1% BSA, 0.02% Tween 20, 0.05% sodium azide) supplemented with 0.06% Tween 20 and in some instances also with 1% BSA. The experiment was conducted at 30° C. with a shake speed of 1000 rpm.
(§2) Data analysis was performed using Data Analysis Software 9.0 (ForteBio, Fremont CA). The reference-subtracted binding curves were globally fitted to the 1:1 interaction model to generate the binding kinetic parameters kₒₙ, koff, and the dissociation constant KD.

[2] = target: T2, human FRα on cells (human, UniProt P15328 25-234); experiment: cell-based or functional assay
[3] = target: T2, human FRα on cells; experiment: cell-based or functional assay; remark: listed apart in the source
[4] = target: T1, recombinant His-tagged human FRα …; experiment: BLI (Octet RED96) as in Example 8: antibody captured, His-tagged hFRα as analyte, mean of n=2
Method: as §1, §2

T1 sequence (P15328 25-233 limits assumed): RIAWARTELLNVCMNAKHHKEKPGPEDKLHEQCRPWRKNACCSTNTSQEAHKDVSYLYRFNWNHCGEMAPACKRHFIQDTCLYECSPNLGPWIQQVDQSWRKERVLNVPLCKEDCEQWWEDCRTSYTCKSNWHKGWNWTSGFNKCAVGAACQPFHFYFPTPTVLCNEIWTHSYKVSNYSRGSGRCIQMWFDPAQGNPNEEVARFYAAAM
T2 sequence (P15328 25-234 limits assumed): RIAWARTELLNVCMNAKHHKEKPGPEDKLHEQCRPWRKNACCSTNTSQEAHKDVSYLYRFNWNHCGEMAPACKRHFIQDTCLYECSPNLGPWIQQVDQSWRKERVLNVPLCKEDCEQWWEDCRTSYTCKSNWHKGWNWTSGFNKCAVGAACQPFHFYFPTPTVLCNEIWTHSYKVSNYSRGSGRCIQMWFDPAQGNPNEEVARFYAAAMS

Binder	EC50 (nM), in vitro cytotoxicity, 2D monolayer, JEG-3 cells, 4 days [2] [nM]	EC50 (nM), in vitro cytotoxicity, 2D monolayer, KB-HeLa cells, 4 days [2] [nM]	EC50 (nM), in vitro cytotoxicity, 2D monolayer, T-47D cells, 4 days [2] [nM]	Kd [4] [nM]	also measured
B1					Kd [1]: 100 nM
B2	0.54	0.52	2.08		3D EC50 (nM), in vitro cytotoxicity, HEC-1-A spheroids, 6 days [3]: 1.1 nM; 3D EC50 (nM), in vitro cytotoxicity, IGROV-1 spheroids, 6 days [3]: 0.5 nM; 3D EC50 (nM), in vitro cytotoxicity, OVCAR-3 spheroids, 6 days [3]: 8.2 nM; 3D EC50 (nM), in vitro cytotoxicity, T-47D spheroids, 6 days [3]: 0.9 nM
B3	1.14	0.72	1.12		3D EC50 (nM), in vitro cytotoxicity, HEC-1-A spheroids, 6 days [3]: 3.9 nM; 3D EC50 (nM), in vitro cytotoxicity, IGROV-1 spheroids, 6 days [3]: 1 nM; 3D EC50 (nM), in vitro cytotoxicity, OVCAR-3 spheroids, 6 days [3]: 1.5 nM; 3D EC50 (nM), in vitro cytotoxicity, T-47D spheroids, 6 days [3]: 1.1 nM
B4					3D EC50 (nM), in vitro cytotoxicity, HEC-1-A spheroids, 6 days [3]: 6.7 nM; 3D EC50 (nM), in vitro cytotoxicity, IGROV-1 spheroids, 6 days [3]: 0.2 nM; 3D EC50 (nM), in vitro cytotoxicity, OVCAR-3 spheroids, 6 days [3]: 20.5 nM; 3D EC50 (nM), in vitro cytotoxicity, T-47D spheroids, 6 days [3]: 1.6 nM
B5	1.68	0.81	0.44		3D EC50 (nM), in vitro cytotoxicity, HEC-1-A spheroids, 6 days [3]: 5 nM; 3D EC50 (nM), in vitro cytotoxicity, IGROV-1 spheroids, 6 days [3]: 1 nM; 3D EC50 (nM), in vitro cytotoxicity, OVCAR-3 spheroids, 6 days [3]: 1.6 nM; 3D EC50 (nM), in vitro cytotoxicity, T-47D spheroids, 6 days [3]: 0.4 nM
B6	3.45	0.77	0.43		3D EC50 (nM), in vitro cytotoxicity, HEC-1-A spheroids, 6 days [3]: 8.5 nM; 3D EC50 (nM), in vitro cytotoxicity, IGROV-1 spheroids, 6 days [3]: 0.6 nM; 3D EC50 (nM), in vitro cytotoxicity, OVCAR-3 spheroids, 6 days [3]: 1.8 nM; 3D EC50 (nM), in vitro cytotoxicity, T-47D spheroids, 6 days [3]: 0.4 nM
B7	1.29	3.75	12.4		
B8	0.54	0.73	3.45		
B9					Kd [1]: 110 nM
B10				7.22	
B11				3.55	
B12				3.13	
B13				4.1	
B14					Kd [1]: 110 nM
B15					Kd [1]: 180 nM
B16					Kd [1]: 160 nM
B17				8.65	
B18				7.29	
B19				4.97	
